Results as given in patent US20180072805A1.

Molecular target: recombinant human soluble Flt-1 (human) (UniProt P17948)
Experiment: competition ELISA, inhibition of human sFlt-1:VEGF binding

UniProt P17948, sequence (P17948 other isoform, or with tags, fused parts or gaps limits assumed): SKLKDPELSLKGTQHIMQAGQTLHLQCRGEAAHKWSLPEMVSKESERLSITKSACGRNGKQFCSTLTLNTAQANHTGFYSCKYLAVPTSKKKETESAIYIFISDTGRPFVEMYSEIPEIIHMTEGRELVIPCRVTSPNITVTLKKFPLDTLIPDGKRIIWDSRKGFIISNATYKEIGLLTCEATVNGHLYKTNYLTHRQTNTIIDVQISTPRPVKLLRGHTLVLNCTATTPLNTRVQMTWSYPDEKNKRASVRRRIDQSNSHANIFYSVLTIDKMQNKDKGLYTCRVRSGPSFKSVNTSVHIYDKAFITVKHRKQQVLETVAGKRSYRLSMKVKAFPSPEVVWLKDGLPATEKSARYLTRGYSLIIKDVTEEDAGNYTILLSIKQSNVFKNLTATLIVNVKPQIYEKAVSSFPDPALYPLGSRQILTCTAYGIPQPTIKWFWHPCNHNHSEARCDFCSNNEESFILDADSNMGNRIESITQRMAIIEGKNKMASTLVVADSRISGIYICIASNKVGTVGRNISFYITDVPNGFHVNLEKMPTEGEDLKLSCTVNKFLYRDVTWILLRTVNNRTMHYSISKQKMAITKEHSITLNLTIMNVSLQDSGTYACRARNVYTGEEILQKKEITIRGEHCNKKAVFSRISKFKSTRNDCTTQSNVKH

Abcam56300 (antibody)
IC50 (read off the curve): 10 ng/mL
